{
  "source": "the DeepSol protein solubility set",
  "data": [
    {"assay": "soluble on expression in E. coli; label from the status in PepcDB or PDB records", "values": [
      {"sequence": "MGSCCSCLNRDSVPDNHPTKFKVTNVDDEGVELGSGVMELTQSELVLHLHRREAVRWPYLCLRRYGYDSNLFSFESGRRCQTGQGIFAFKCSRAEEIFNLLQDLMQCNSINVMEEPVIITRNSHPAELDLPRAPQPPNALGYTVSSFSNGCPGEGPRFSAPRRLSTSSLRHPSLGEESTHALIAPDEQSHTYVNTPASEDDHRRGRHCLQPLPEGQAPFLPQARGPDQRDPQVFLQPGQVKFVLGPTPARRHMVKCQGLCPSLHDPPHHNNNNEAPSECPAQPKCTYENVTGGLWRGAGWRLSPEEPGWNGLAHRRAALLHYENLPPLPPVWESQAQQLGGEAGDDGDSRDGLTPSSNGFPDGEEDETPLQKPTSTRAAIRSHGSFPVPLTRRRGSPRVFNFDFRRPGPEPPRQLNYIQVELKGWGGDRPKGPQNPSSPQAPMPTTHPARSSDSYAVIDLKKTVAMSNLQRALPRDDGTARKTRHNSTDLPL", "soluble on expression in E. coli": "soluble"},
      {"sequence": "MFPIGEQPRILKDLAGINEDVQELAISGKTKNIELLGELKIRDLWIFTVNQTQFDKIMEYVNPEILYIDEMRVENLSKLQKMSNLRRLYLGWNPKNTDLWDLSYNNNLSYLLIQAFSKLEDLSPIKDGKKLEGLFLGGAIMKTLNVKTLDPIGDLVELNELTLMNIKVQDRSLEPLMNLKRLKKLNVSNQFPMEEYAKLSVVLQNTECEFFKPYVRMESTEGKDIMMIGRKRPFLNSKIDAEKIRKYEQEFKTVQEEFRDGMK", "soluble on expression in E. coli": "not soluble"},
      {"sequence": "MATKSVLMLGSGFVTRPTLDVLTDSGIKVTVACRTLESAKKLSAGVQHSTPISLDVNDDAALDAEVAKHDLVISLIPYTFHATVIKSAIRQKKHVVTTSYVSPAMMELDQAAKDAGITVMNEIGLDPGIDHLYAIKTIEEVHAAGGKIKTFLSYCGGLPAPESSDNPLGYKFSWSSRGVLLALRNAASFYKDGKVTNVAGPELMATAKPYFIYPGFAFVAYPNRDSTPYKERYQIPEADNIVRGTLRYQGFPQFIKVLVDIGFLSDEEQPFLKEAIPWKEATQKIVKASSASEQDIVSTIVSNATFESTEEQKRIVAGLKWLGIFSDKKITPRGNALDTLCATLEEKMQFEEGERDLVMLQHKFEIENKDGSRETRTSSLCEYGAPIGSGGYSAMAKLVGVPCAVAVKFVLDGTISDRGVLAPMNSKINDPLMKELKEKYGIECKEKVVA", "soluble on expression in E. coli": "soluble"},
      {"sequence": "MGSDKIHHHHHHMTVNSIKLLLLPALLLLVSACSSPEPIISLSGSTMGTTYHIKVVNSDRLPEAQLLQAEIDMALEVVNDQMSTYRSDSELSKFNQLQVQQSVKVSADTIKVIEEGMRLYQETDGALDITLGPVVNLWGFGPDKRPTTIPTQAQIDNAKAKMGIKELSIKGLTLTKHNADLYVDLSSIAKGFGVDKIAAILDKYHVSGYLVEIGGELNVKGTKDDNTPWRVAVEQPTTEGQAVQQVIEPGTMSLATSGDYRNFYQENGERFSHLIDPRNGYPIKHQLASATVLHSSCMTADGYATAMMVLGTEASLALAKEKNLAIMLIEKQEQGYQVYYSDAFKSYVK", "soluble on expression in E. coli": "not soluble"},
      {"sequence": "MSLNITGIQSDWKVEKIEFAKLTGERARSAGANGRIGVHGKSCTVDIARITIDGQTGYGSSIHMTPEWAEDVIGRRLLDLFDDRGRLREAYRLQLEYPVLDWLGQRQGKPVYDLVSGAHLETGASLVVPCYDTSLYFDDLHLADERAAVALMQEEAMQGYAKGQRHFKIKVGRGGRHMPLWEGTKRDIAIVRGISEVAGPAGKIMIDANNAYNLNLTKEVLAALSDVNLYWLEEAFHEDEALYEDLKEWLGQRGQNVLIADGEGLASPHLIEWATRGRVDVLQYDIIWPGFTHWMELGEKLDAHGLRSAPHCYGNAYGIYASGHLSAAVRNFEFVEYDDITIEGMDVSGYRIENGEIHVPATPGFGIVFDDELVTYLINRSGWSEGHHHHHH", "soluble on expression in E. coli": "soluble"},
      {"sequence": "GEGSPVGIAILGYGTVGSQVLRLLTENHNDFQHRAGGPLEIKGVAASSVEKHRGSLADQLGLLTDDARSLIARDDVDIVVEVIGGIDYPRELILEALHSGKSVVTANKALVAAHSEELAAAADEAGVDLYFEAAVAAAIPVLGPLRRSLAGDQIQSVAGIVNGTTNFILDAMDSTGASYDDMLAEATRLGYAEADPTADVEGHDAASKAAILASLAFHTRVTYADVYCEGISKITADDINAAKEAGFTIKLLAICERLNVDGVEKVSARVHPTLVPRNHPLASVDKSFNAIFVEAEAAGRLMFYGNGAGGNPTASAVLGDIVGAARNKVFGGRAPGESTYADLPIAPFGEVPTRFHIDMEVEDRVGVLADLAKTFSNHGISLRTVRQAEKDGHARLIVVTHTAKESELEATVEQIKNSDSVKKINSVIRLAG", "soluble on expression in E. coli": "not soluble"},
      {"sequence": "GVSKEEYKDVETAKKEKEQLGELMEPALGYVVKVPVSSFENKKVDISDIEVITNGNLDDVPYKANSSKYNYPDIKTKDSSLQYVRSGYVIDGEHSGSNEKGYVYYKGNSPAKELPVNQLLTYTGSWDFTSNANLNNEEGRPNYLNDDYYTKFIGKRVGLVSGDAKPAKHKYTSQFEVDFATKKMTGKLSDKEKTIYTVNADIRGNRFTGAATASDKNKGKGESYNFFSADSQSLEGGFYGPKAEEMAGKFVANDKSLFAVFSAKHNGSNVDTVRIIDASKIDLTNFSISELNNFGDASVLIIDGKKIKLAGSGFTNKHTIEINGKTMVAVACCSNLEYMKFGQLWQQAEGGKPENNSLFLQGERTATDKMPKGGNYKYIGTWDAQVSKENNWVATADDDRKAGYRTEFDVDFGNKNLSGKLFDKNGVNPVFTVDPKIDGNGFTGKAKTSDAGFALDSGSSRYENVKFNDVAVSGGFYGPTAAELGGQFHHKSENGSVGAVFGAKQQVKK", "soluble on expression in E. coli": "soluble"},
      {"sequence": "MGSDKIHHHHHHMMPAKWDEVRPLLDRFSRDLPTNATVWFMMPDGSYYATAKGGFTDQNLKDCTCFPKLIGGKEVLGELVISRSTGQRSIVVAAPVVADGKVVAAVGVSVDAVKLIEVVESRMTLPENAYIYALDAKTKVTLHRYQARTFKTVFEIGNESLGDTFKKVMHREQGVFNYSLEGKKMNSIFRKSPVHGWYFFIAQQCK", "soluble on expression in E. coli": "not soluble"},
      {"sequence": "MDKEQRNIVVFNASKRELFTSSSGYKSLQKKLRAQWKIQSIKEELTLEKLQGVKLWITAGPREKFTAAELEVLKQYLDSGGALLVMIGEGGELKYDTNINFLLEEFGIMVNNDAVIRNVYYKYFHPKEALVSNGVLNREISRAAGKVVTGVIDEENTGNNSQALTFVYPYGATLNVMKPAVAILSTGSVCFPLNRPVLAFHHSKNAGKLAVLGSCHMFSDQYLDKEENSRIMDVVFQWLTTDSIHLNQIDAEDPEITDYMMLPDTGSLSERLRVCLQEGDENPRDFTSLFDMSLLKLHTNTLPSVLDAYKQLNVKHEALQLITPQFETPLPPLQPAVFQPAFRDLPPPMLDLFDLDETFSSEKVRLAQLSNKCTDDDLEFYVRKCGDILGVTGNLDKDKRDAKHILEHVFFQVVEFKKLNEEHDVDTAEARFSMY", "soluble on expression in E. coli": "soluble"},
      {"sequence": "RTHIIGIDQTLVDIEAKVDDAFIEKYGLSKGHSLVIDNDKAEMLYNELKDNNMISNEFAGGTIGNTLHNYSVLADDKSTLLGVMSEDIHIGSYSYRYLCNTSSRMDLNYLQPVPGAIGRCFALISEDGERTFAISEGDMNQLRAESIPEKIFKNASALVLTAYLVRCKEGDPMPEATMKAIEYAKKYDVPVVLTMGTKFVVQDDPQYWRDFLNDHVTVVAMNEEEGEALTGATDPLEAANKTLEWVDLVLCTAGPVGLYMAGYTEDSAKRETSLPLLPGTIAEFNQFEFSRPAVKDSCENPIKVFSHISPYMGGPEKIKNTNGAGDGALSALLHDMAANHYHRNNVPNSSKHQHSFLTYSSFSQVCKYSNRVSFEVLAQHSPRLSRGLPEREDSLEEAYWE", "soluble on expression in E. coli": "soluble"},
      {"sequence": "MTAHFPFDNSYVALPPNFFARVAPTPVAAPRLIKLNRPLAVQLGLDPDLLETPEGAEILSGNQMPETAASIAMAYAGHQFGNFVPQLGDGRAILLGEVVDRNGVRRDIQLKGAGRTPFSRMGDGRAALGPVLREYIVSEAMAALGIPTTRSLAAVLTGETVLRDPIQPGAVLTRVASSHIRVGTFQYFAARGDLASVRALADHAIARHYPEAAQAPSPYLALLEGVIGRQAELVASWMMVGFIHGVMNTDNCSVAGETIDYGPCAFMDTFDPKTVYSSIDQFGRYAYGNQPPIALWNLTRLAECLVRLLADDDDKGIEIAQTALGGFAEQFNAAYLAKLAAKLGLFTSQPDDQQLSQEFLTALAKGEADFTLAFRRLSDAAVDPSDLGEVRALFADPAAFDEWAPRWRARIATEPQDATTRQAAMRRVNPAYIPRNHRIEAVIRAAVDRDDFAPFEEILTVLANPFEEKAEFARYAEPPQPHEQVLETFCGTAAALEHHHHHH", "soluble on expression in E. coli": "soluble"},
      {"sequence": "MGSDKIHHHHHHANAAKKDDAKFKPAADRDGPRWRTGIEGQRIADLGDGRFLNPVLSGDYPDPSVLKDGDDYYMTHSSFDSAPGLLIWHSRDLVNWRPLGPALAKPLGTVFAVDIAKHDGRYFIYIPFMKAPWSTDLPSFANTFVIHAPSMEGPWSDPIDLKVGGLIDPGHVVGEDGHRYLFFNDGKRVRLTADGLATDGPVETAYQAWRYPDDWITEAYSPEGPKLFRRGDYFYLVNAVGGTSGPATGHMIVAARSRSIHGPWENCPHNPIQRTHSRQEMWWSRGHATCVEGPGGQWYMVYHGYENGYHTLGRQTLVEPIEWTPDGWFRATGGDLSEPLRKPRGPAQPHGMAHSDSFHTDRLGTLWNLYGSAPAETARIAIGDGALTLKAKGKGPSDGVVLTQQVGDRSYEVSVELELTDKTSGGLLLFFDDRLFLGMGIDGHRMTTWRGGKASYWPEPAPPARRIFMRITNQEQVVTFYYSLDGKNWTRHGVRSEVTGYNANTVDNLLSLRPALYAAGEGEVLFRNFTYRALA", "soluble on expression in E. coli": "not soluble"},
      {"sequence": "MEWPRFGRVVLKPFSAGLSEAEWKGLYETFRDPEVAEWNGSSPLRSPFWLFKRFVLAEARRKDRVAFVILDEKGEYLGTLELYDLTPEEATLGILIGRKDRWGQGYGTEAVRAALDYAFRVLGLRRVKLRTFAHNLRARRAFQKAGFREVGVVPGPRGREDVHMEVRREDLGPEA", "soluble on expression in E. coli": "soluble"},
      {"sequence": "GPLGSNEEANRFANQAKLRVQEAVFYIWSDKTLKYSQMANDEAESFRNTWLLFRSFQQWITLTQTFKEQSRLADQAFLNKMFRKILKAQEHWKH", "soluble on expression in E. coli": "soluble"},
      {"sequence": "MAHHHHHHMDMQEQISDKGADDYDDTLVELKESELLKEDEKKKTKKKLYELNELHHLVNALPYIDSYDNELEQNAKRLVEEEMNLMHKNNEIKNYLETFPLPKITYLSNDNSIIQNELKRCEENRKMQKLNFDHYNIENDVLNNKNIEEWEKTLKKYEIILENSHNALINMELMNKYKEVMWSEHMKVFNHLDINLQNNIKTLKDDIDNINKKRKLHQLSYVNELSTLQNEQKEYKKKNNMVLNEIKKLMTENMLMKYKTNMI", "soluble on expression in E. coli": "not soluble"},
      {"sequence": "MNRSTISPVEARQQFRAGLIQPTSGWSAGFAQANLISMPQDLAYDFLLFAQRNPKPCPILEVLNAGETFGGIFGSNATEADIRTDAPQYRIYAHGELIDSPASAVDYWRDDLVSFIIGCSFTFEHPMVQAGVPVRHLEAGRNVPMYETSLACRPAGSLSGNLVVSLRMIPASQVADAVRITSRYPAVHGAPVHIGDPSLIGIDDINNPDFGDAPLSEPSDVPVFWACGVTPQAMVMSSKPPLAITHAPGHMLITDAPDLGFQVPLEHHHHHH", "soluble on expression in E. coli": "not soluble"},
      {"sequence": "MGMIGYFAEIDSEKINQLLESTEKPLMDNIHDTLSGLRRLDIDKRWDFLHFGLTGTSAFDPAKNDPLSRAVLGEHSLEDGIDGFLGLTWNQELAATIDRLESLDRNELRKQFSIKRLNEMEIYPGVTFSEELEGQLFASIMLDMEKLISAYRRMLRQGNHALTVIVG", "soluble on expression in E. coli": "soluble"}
    ]}
  ]
}
